Results on 5 molecules are retold here after article PMC10891134, “Bacteria employ lysine acetylation of transcriptional regulators to adapt gene expression to cellular metabolism” (Nature Communications, 2024).

For data set [1], the target named is RutR AcK150 K150AcK (Escherichia coli K12?) (UniProt P0ACU2). Briefly: ITC. To be noted: ITC: 100 mM potassium phosphate pH 6.4, 150 mM NaCl, 5 mM MgCl2, 2 mM b-ME, 20 or 25 C; SPR: 100 mM potassium phosphate pH 6.4, 300 mM NaCl, 0.05% Tween20 ….
In data set [2] the target is RutR AcK7/11 K7AcK;K11AcK (Escherichia coli K12?) (UniProt P0ACU2). The data set can be described thus: ITC. To be noted: ITC: 100 mM potassium phosphate pH 6.4, 150 mM NaCl, 5 mM MgCl2, 2 mM b-ME, 20 or 25 C; SPR: 100 mM potassium phosphate pH 6.4, 300 mM NaCl, 0.05% Tween20 ….
Data set [3] has as its target RutR AcK95 K95AcK (Escherichia coli K12?) (UniProt P0ACU2). The data set can be described thus: ITC. To be noted: ITC: 100 mM potassium phosphate pH 6.4, 150 mM NaCl, 5 mM MgCl2, 2 mM b-ME, 20 or 25 C; SPR: 100 mM potassium phosphate pH 6.4, 300 mM NaCl, 0.05% Tween20 ….
The target of data set [4] is RutR AcK62 K62AcK (Escherichia coli K12?) (UniProt P0ACU2). Briefly: ITC. To be noted: ITC: 100 mM potassium phosphate pH 6.4, 150 mM NaCl, 5 mM MgCl2, 2 mM b-ME, 20 or 25 C; SPR: 100 mM potassium phosphate pH 6.4, 300 mM NaCl, 0.05% Tween20 ….
Data set [5] deals with RutR AcK7 K7AcK (Escherichia coli K12?) (UniProt P0ACU2). The data set can be described thus: ITC. To be noted: ITC: 100 mM potassium phosphate pH 6.4, 150 mM NaCl, 5 mM MgCl2, 2 mM b-ME, 20 or 25 C; SPR: 100 mM potassium phosphate pH 6.4, 300 mM NaCl, 0.05% Tween20 ….
The target of data set [6] is RutR AcK11 K11AcK (Escherichia coli K12?) (UniProt P0ACU2). Briefly: ITC. To be noted: ITC: 100 mM potassium phosphate pH 6.4, 150 mM NaCl, 5 mM MgCl2, 2 mM b-ME, 20 or 25 C; SPR: 100 mM potassium phosphate pH 6.4, 300 mM NaCl, 0.05% Tween20 ….
Data set [7] has as its target RutR AcK21 K21AcK (Escherichia coli K12?) (UniProt P0ACU2). The data set can be described thus: ITC. To be noted: ITC: 100 mM potassium phosphate pH 6.4, 150 mM NaCl, 5 mM MgCl2, 2 mM b-ME, 20 or 25 C; SPR: 100 mM potassium phosphate pH 6.4, 300 mM NaCl, 0.05% Tween20 ….
Data set [8] concerns the target RutR AcK7/11 K7AcK;K11AcK (Escherichia coli K12?) (UniProt P0ACU2). The data set can be described thus: SPR. To be noted: ITC: 100 mM potassium phosphate pH 6.4, 150 mM NaCl, 5 mM MgCl2, 2 mM b-ME, 20 or 25 C; SPR: 100 mM potassium phosphate pH 6.4, 300 mM NaCl, 0.05% Tween20 ….
The target in data set [9] is RutR AcK7 K7AcK (Escherichia coli K12?) (UniProt P0ACU2). The data set can be described thus: SPR. To be noted: ITC: 100 mM potassium phosphate pH 6.4, 150 mM NaCl, 5 mM MgCl2, 2 mM b-ME, 20 or 25 C; SPR: 100 mM potassium phosphate pH 6.4, 300 mM NaCl, 0.05% Tween20 ….
In data set [10] the target is T1, RutR Δ1-12 (UniProt P0ACU2 13-212, del1-12).
T1 sequence: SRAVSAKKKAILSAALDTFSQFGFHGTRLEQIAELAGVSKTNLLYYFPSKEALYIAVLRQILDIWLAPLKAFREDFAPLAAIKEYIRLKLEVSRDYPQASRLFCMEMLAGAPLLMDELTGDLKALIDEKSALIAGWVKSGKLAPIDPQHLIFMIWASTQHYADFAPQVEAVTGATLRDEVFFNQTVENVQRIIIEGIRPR
Briefly: EMSA; ITC: 100 mM potassium phosphate pH 6.4, 150 mM NaCl, 5 mM MgCl2, 2 mM b-ME, 20 or 25 C; SPR: 100 mM potassium phosphate pH 6.4, 300 mM NaCl, 0.05% Tween20, 25 C; EMSA: 20 mM Tris-HCl pH 7.5, 100 mM KCl, 2 mM DTT, 10% glycerol, 25 nM DNA, 30 C. To be noted: protein: recombinant; tags: His6; chain copies: 2; blunt.

Data set [11] deals with T2, RutR K7R/K11R (UniProt P0ACU2 1-212, K7R;K11R).
T2 sequence: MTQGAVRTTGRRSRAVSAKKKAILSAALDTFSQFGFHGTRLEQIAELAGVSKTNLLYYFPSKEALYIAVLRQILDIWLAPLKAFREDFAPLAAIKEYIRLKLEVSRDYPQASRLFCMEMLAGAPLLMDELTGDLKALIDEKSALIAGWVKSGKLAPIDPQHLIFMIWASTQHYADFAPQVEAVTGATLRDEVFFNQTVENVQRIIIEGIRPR
Briefly: ITC; ITC: 100 mM potassium phosphate pH 6.4, 150 mM NaCl, 5 mM MgCl2, 2 mM b-ME, 20 or 25 C; SPR: 100 mM potassium phosphate pH 6.4, 300 mM NaCl, 0.05% Tween20, 25 C; EMSA: 20 mM Tris-HCl pH 7.5, 100 mM KCl, 2 mM DTT, 10% glycerol, 25 nM DNA, 30 C. To be noted: protein: recombinant; tags: His6; chain copies: 2; blunt.

Data set [12] has as its target T3, RutR K7Q (UniProt P0ACU2 1-212, K7Q).
T3 sequence: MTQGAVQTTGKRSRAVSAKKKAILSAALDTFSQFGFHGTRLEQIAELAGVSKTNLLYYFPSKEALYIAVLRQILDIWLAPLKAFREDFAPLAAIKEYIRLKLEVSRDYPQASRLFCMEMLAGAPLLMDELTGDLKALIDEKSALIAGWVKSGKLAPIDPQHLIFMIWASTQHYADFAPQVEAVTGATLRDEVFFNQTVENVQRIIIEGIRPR
The description is as above. To be noted: protein: recombinant; tags: His6; chain copies: 2; blunt.

Data set [13] addresses T4, RutR K7Q/K11Q (UniProt P0ACU2 1-212, K7Q;K11Q).
T4 sequence: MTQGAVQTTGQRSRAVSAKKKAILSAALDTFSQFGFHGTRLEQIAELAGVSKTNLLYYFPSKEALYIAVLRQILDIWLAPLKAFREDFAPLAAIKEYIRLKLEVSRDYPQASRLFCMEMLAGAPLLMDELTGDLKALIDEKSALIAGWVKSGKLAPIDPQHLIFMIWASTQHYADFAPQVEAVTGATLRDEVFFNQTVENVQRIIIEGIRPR
The data set is described as above. To be noted: protein: recombinant; tags: His6; chain copies: 2; blunt.

The target in data set [14] is T5, RutR K52Q (UniProt P0ACU2 1-212, K52Q).
T5 sequence: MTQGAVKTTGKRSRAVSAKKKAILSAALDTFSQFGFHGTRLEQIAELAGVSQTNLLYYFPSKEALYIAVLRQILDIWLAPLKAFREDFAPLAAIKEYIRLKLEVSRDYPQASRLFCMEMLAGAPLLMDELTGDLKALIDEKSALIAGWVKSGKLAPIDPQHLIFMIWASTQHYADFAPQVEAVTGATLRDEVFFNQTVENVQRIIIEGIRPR
The data set is described as above. To be noted: protein: recombinant; tags: His6; chain copies: 2; blunt.

Data set [15] deals with T6, RutR K52R (UniProt P0ACU2 1-212, K52R).
T6 sequence: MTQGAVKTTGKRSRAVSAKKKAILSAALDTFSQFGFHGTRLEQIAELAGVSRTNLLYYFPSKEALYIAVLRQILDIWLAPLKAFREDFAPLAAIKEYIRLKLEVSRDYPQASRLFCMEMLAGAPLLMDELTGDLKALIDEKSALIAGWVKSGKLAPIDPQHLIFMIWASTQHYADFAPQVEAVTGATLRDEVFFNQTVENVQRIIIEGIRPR
The description is as above. To be noted: protein: recombinant; tags: His6; chain copies: 2; blunt.

Data set [16] addresses T7, RutR WT (UniProt P0ACU2 1-212).
T7 sequence: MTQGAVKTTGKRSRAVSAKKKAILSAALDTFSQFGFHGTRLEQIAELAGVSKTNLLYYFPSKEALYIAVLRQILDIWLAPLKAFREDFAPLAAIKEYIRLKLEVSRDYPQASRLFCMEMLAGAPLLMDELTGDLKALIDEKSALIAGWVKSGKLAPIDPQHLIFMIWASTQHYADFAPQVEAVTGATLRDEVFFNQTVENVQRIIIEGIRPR
The description is as above. To be noted: protein: recombinant; tags: His6; chain copies: 2; blunt.

Data set [17] addresses T8, RutR K11Q (UniProt P0ACU2 1-212, K11Q).
T8 sequence: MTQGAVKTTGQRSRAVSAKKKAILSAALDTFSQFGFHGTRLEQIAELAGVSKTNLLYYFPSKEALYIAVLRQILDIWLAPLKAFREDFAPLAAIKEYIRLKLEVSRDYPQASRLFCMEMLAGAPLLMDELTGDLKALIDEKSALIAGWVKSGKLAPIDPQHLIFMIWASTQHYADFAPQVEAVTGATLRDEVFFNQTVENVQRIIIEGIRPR
The description is as above. To be noted: protein: recombinant; tags: His6; chain copies: 2; blunt.

Data set [18] has as its target T7, RutR WT. Briefly: SPR; ITC: 100 mM potassium phosphate pH 6.4, 150 mM NaCl, 5 mM MgCl2, 2 mM b-ME, 20 or 25 C; SPR: 100 mM potassium phosphate pH 6.4, 300 mM NaCl, 0.05% Tween20, 25 C; EMSA: 20 mM Tris-HCl pH 7.5, 100 mM KCl, 2 mM DTT, 10% glycerol, 25 nM DNA, 30 C. To be noted: protein: recombinant; tags: His6; chain copies: 2; blunt.

On to “GTTTTAATGTAAATTTTGACCATTTGGTCCACTTTTTTCTGCTCGT (double strand) [boxcarA]”, for which the Kd in [1] is 40 nM; in data set [2] it was 300 nM; in data set [3], 19 nM; in [4], 1120 nM; in data set [5], 73 nM; in data set [6], 82 nM. This molecule also gave a Kd in [7] of 12 nM.

As for “GTTTTATGTGCAACTGTTTTGACCGTTTAGTCCACTTTTTACCAGATATTTTAG (double strand) [biotin-boxrutA]”, the dissociation constant (Kd) in [8] was 76.2 nM; in [9] it was 9.06 nM.

B1: boxcarA (dsDNA)
DNA 1: GTTTTAATGTAAATTTTGACCATTTGGTCCACTTTTTTCTGCTCGT
DNA 2: ACGAGCAGAAAAAAGTGGACCAAATGGTCAAAATTTACATTAAAAC
On to B1, for which the binding result in [10] is given as “binds”. For the same molecule, the Kd stood at 17 ± 1 nM in data set [11]; 26 ± 12 nM in [12]; 153 ± 43 nM in [13]; 1220 ± 1130 nM in data set [14]; 61 ± 36 nM in data set [15]; 28 ± 1 nM in [16]. Besides, the Kd in [17] stood at 42 ± 16 nM.

B2: boxrutA (dsDNA)
DNA 1: GTTTTATGTGCAACTGTTTTGACCGTTTAGTCCACTTTTTACCAGATATTTTAG
DNA 2: CTAAAATATCTGGTAAAAAGTGGACTAAACGGTCAAAACAGTTGCACATAAAAC
In the case of B2, the binding result in data set [10] is on record as “binds”. Further, the equilibrium dissociation constant (Kd) in [11] was determined as 47 ± 20 nM; in data set [12], 57 ± 20 nM; in [13], 540 ± 158 nM; in [14], 2420 ± 961 nM; in [15], 42 ± 30 nM; in [16] it was 44 ± 21 nM. In data set [17], the equilibrium dissociation constant (Kd) was found to be 332 ± 179 nM.

B3: biotin-boxrutA (dsDNA)
DNA 1: GTTTTATGTGCAACTGTTTTGACCGTTTAGTCCACTTTTTACCAGATATTTTAG
DNA 2: CTAAAATATCTGGTAAAAAGTGGACTAAACGGTCAAAACAGTTGCACATAAAAC
With B3, the dissociation constant (Kd) in data set [18] was found to be 4.27 ± 1.19 nM.

For orientation: Kd means the constant that tells how readily two partners part at equilibrium.
